These results are taken from the RNAGym collection of RNA variant scans (doi:10.1073/pnas.2313332121).

B1: TPR t1 (parent)
chain: GACCAAUCUGCCCUCAGAGCUCGAGAACAUCUUCGGAUGCAGAGGAGGCAGGCUUCGGUGGCGCGAUAGCGCCAACGUCCUCAACCUCCAAUGCAUCCCACCACAUGAUGAUGCCUGAAGAGCCUUGGUUUUUUG

The variants in this data set derive from B1. Kind of data set: polymerase ribozyme fitness, log enrichment relative to wild type (log ratio); higher = more active; in vitro selection for triplet polymerase activity. An outline of the steps:
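Mutant libraries of each subunit of a heterodimeric triplet polymerase ribozyme were built by PCR and transcribed. Each library went through one round of in vitro selection in triplicate: annealing with biotinylated primer, partner subunit and triplets, frozen incubation at −7 °C, gel excision of extended constructs, streptavidin-bead capture and RT-PCR. Input and output libraries were Illumina-sequenced; only genotypes with ≥10 input reads and ≥1 read per output were kept. Fitness is log2(genotype enrichment/wild-type enrichment), using inverse-variance-weighted replicate averages.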
As for GACCAAUCUGCCCUCAAAGCUCGAGAACAUCUUCGUAUGCAGAGGAGGCAGGCUUUGGUGGCGCGAUAGCGCCAACGUCCUCAACCUCCAAUGCAUCCCACCACAUGAUGAUGCCUGAAGAGCCUUGGUUUUUUG [G17A G36U C56U], the “polymerase ribozyme fitness (log ratio)” value is -4.9. Take GACCAAUCUGCCCUCAAAGCUCGAGAACAUCUUCGUAUGCAGAGGAGGCAGGCUUCGGUGGCGCGAUAGCGCCAACGUCCUCAACCUCCAAUGCAUCCCACCACAUGAUGAGGCCUGAAGAGCCUUGGUUUUUUG [G17A G36U U112G]: the “polymerase ribozyme fitness (log ratio)” value is -4.13. For GACCAAUCUGCCCUCAAAGCUCGAGAACAUCUUCGGAUGCAUAGGAGGCAGGCUUCGGUGGCGCGAUAGCGCCAACGUCCUCAACCUCCAAUGCAUCCCACCACAUGAUGAUGCCUGAAGAGCCUUGGAUUUUUG [G17A G42U U129A], the “polymerase ribozyme fitness (log ratio)” value was -4.5. As for GACCAAUCUGCCCUCAAAGCUCGAGAACAUCUUCGGAUGCCGAGGAGGCAGGCUUCGGUGGCGCGAUAGCGCCAACGUCCUCAACCUCCAAUGCAUCCCACCACAUGAUGAUGCCUUAAGAGCCUUGGUUUUUUG [G17A A41C G117U], the “polymerase ribozyme fitness (log ratio)” value is -3.91. In the case of GACCAAUCUGCCCUCAAAGCUCGAGAACAUCUUCGGAUGCAGAGGAGGCAGGCUUCGGUGGAGCGAUAGCGCCAACGUCCUCAACCCCCAAUGCAUCCCACCACAUGAUGAUGCCUGAAGAGCCUUGGUUUUUUG [G17A C62A U87C] it was -6.24; in that of GACCAAUCUGCCCUCAAAGCUCGAGAACAUCUUCGGAUGCAGAGGAGGCAGGCUUCGGUGGCGCGAUAGCACCAACGUCCUCAACCUCCAAUGCAUCCCACCACAUGAUGAUGCCUGAAGAGCCUUGGUUUUUUG [G17A G71A], -4.07; in that of GACCAAUCUGCCCUCAAAGCUCGAGAACAUCUUCGGAUGCAGAGGUGGCAGGCUUCGGUGGCGCGAUAGCGCCAACGUCCUCAACCUCCAAUGCAUCCCACCACAUGAUGAUGCCUGAAGAGCCUUGGUUUUUUG [G17A A46U], -4.52. In the case of GACCAAUCUGCCCUCAAAGCACGAGAACAUCUUCGGAUCCAGAGGAGGCAGGCUUUGGUGGCGCGAUAGCGCCAACGUCCUCAACCUCCAAUGCAUCCCACCACAUGAUGAUGCCUGAAGAGCCUUGGUUUUUUG [G17A U21A G39C C56U] it was -4.02. Next, GACCAAUCUGCCCUCAAAGCUCGAGAACAUCUUCGGAUGCAGAGGAGGCAGGCUUCGGUGGCGCGAUAGCGCUAACGUCCUCAACCUCCAAUGCAUCCCACCACAUGAUGAAGCCUGAUGAGUCCUGGUUUUUUG [G17A C73U U112A A119U C123U U125C]: -2.9. Take GACCAAUCUGCCCUCAAAGCUCGAGAACAUCUUCGGAUGCAGAGGAGGCAGGCUUCGGUGGCGCGAUAGCGGCAACGUCCUCAACCUCCAAUGCAUCCCACCACAUGAUGAUGCCUGAAGAGCCUUGGUUUUUUG [G17A C72G]: the “polymerase ribozyme fitness (log ratio)” value is -3.28. In the case of GACCAAUCUGCCCUCAAAGCUCGAGAACAUCUUCGGAUGCAGAGGAGGCAGGCUUCGGUGGCGCGAUAGCGUCAACGUCCUCAACCUCCAAUGCAUCCCACCACAUGAUGAUGCCUGAAGAGCCUUGGUUUUUUG [G17A C72U] it was -2.29; in that of GACCAAUCUGCCCUCACAGCUCGAGGACAUCUUCGGUUGCAGAGGAGGCAGGGUUCAGUGGCGCGAUAGCGCCAACGUCCUCAACCUCCAGUUCAUCCCACCACAUGAUGUUGCCUGAAGAGCCUUGGGUUUUUG [G17C A26G A37U C53G G57A A91G G93U A111U U129G], -6.27; in that of GACCAAUCUGCCCUCAAAGCUCGAGAACAUCUUCGGAUGCAGAGGAGCCAGGCUUCGGUGGCGCGAUAGCGCCAACGUCCUCAACCUCCAAUGCAUCCCACCACAUGAUGAUGCCUGAAGAGCAUUGAUUUUUUG [G17A G48C C124A G128A], -3.31. In the case of GACCAAUCUGCCCUCAAAGCUCGAGAACAUCUUCGGAUGCAGGGGAUGCAGGCUUCGGUGGCGCGAUAGCGCCAACGUCCUCAACCUCCAAUGCAUCCCACCACAUGAUGAUGCCUGAACAGCCUUGGUUUUUUC [G17A A43G G47U G120C G135C] it was -2.39. Next, GACCAAUCUGCCCUCAAAUCUCGAGAACAUCUUCGGAUGCAGAGGAGGCAGGCUACGGUGGCGCGAUAGCGCCAACGUCCUAAACCUCCAAUGCAUCCCACCACAUGAUGAUGACUGAAGAGCCUUGGUUUUUUG [G17A G19U U55A C82A C114A]: -3.12; GACCAAUCUGCCCUCAAAGGUCGAGAACAUCUUCGGAUGCAGAGGAGGCAGGCUUCGGUGGCGCGAUAGCGCCAACGUCCUCAACCUCCAAUGCAUCCCACCACAUGAUGAUGCCUGAAGGGCCUUGGUUUUUUG [G17A C20G A121G]: -4.27.

In the case of GACCAAUCUGCCCUCAAAGCUCGAGAACAUCUUCGGAUGCAGAGGAGGCAGACUUCGGUGGCGCGAUAGCGCCAACGUCCUCAACCUCCAAUGCAUCCCACCACAUGAUGAUGCCUGGAGAGCCUUGGUUUUUUG [G17A G52A A118G], the “polymerase ribozyme fitness (log ratio)” value is -4.15. Turning to GACCAAUCUGCCCUCACAGCUCGAGAACAUCUUCGGAUGCUGAGGAGGCAUGCUUCGGUGGCGUGAUAGCGCCAACGUCCUCAACCUCCAAUGCAUCCCACCAUAUGAUGAUGCCUGAAAAGCCUUGGUUUUUUG [G17C A41U G51U C64U C104U G120A], the “polymerase ribozyme fitness (log ratio)” value was -6.91. In the case of GACCAAUCUGCCCUCAAAGCUCGAGAACAUCUUCGGAUGGAGAGGAGGCAGGCUUCGGUAGCGCGAUAGCGCCAACGUCCUCCCCCUCCAAUGCAUCCCACCACAUGAUGAUGCCUGAAGCGCCUUGGUUUUUUG [G17A C40G G60A A83C A84C A121C] it was -3.61. For GACCAAUCUGCCCUCAAAGCUCGAGAACAUCUUCGGAUGCAGAGGAGGCAGGCUUCGGUGACGCGAUAGCGCCAACGUCCUCAACCUCCAAUGCAUCCCACCACAUGAUGAUGCCUGAAGAGCUUUGGUUUUUUG [G17A G61A C124U], the “polymerase ribozyme fitness (log ratio)” value was -2.13.

Consider GACCAAUCUGCCCUCAAAGCUCGAGAACAUCUUCGGAUGCAGAGGAGGGAGGCUCCGGUGGCGCGAUAGCGCCAUUGUCCUCAACCUCCAAUGCAUCCCACCACAUGAUGAUUCCUGAAGAGCCUUGGUUUUUUG [G17A C49G U55C A75U C76U G113U], for which the “polymerase ribozyme fitness (log ratio)” value was -7.46.
